# PMC6284025
# What was measured:
# [1] = target: FcγRII (CD32) on human CD4+ T cells (human (endogenous in CD4+ T cells of blood donors)) (UniProt P12318); experiment: flow cytometry on cells; activated purified CD4+ T cells incubated with aIgG (100 μg/ml) for 2 h at 37°C, washed three times, stained with biotinylated anti-human IgG Fc and streptavidin PerCP; percent of aIgG+CD4+ T cells
# [2] = target: FcγRII (CD32) on human CD4+ T cells (human (endogenous in CD4+ T cells of blood donors)) (UniProt P12318)
# Chain of UniProt P12318 (P12318 34-317): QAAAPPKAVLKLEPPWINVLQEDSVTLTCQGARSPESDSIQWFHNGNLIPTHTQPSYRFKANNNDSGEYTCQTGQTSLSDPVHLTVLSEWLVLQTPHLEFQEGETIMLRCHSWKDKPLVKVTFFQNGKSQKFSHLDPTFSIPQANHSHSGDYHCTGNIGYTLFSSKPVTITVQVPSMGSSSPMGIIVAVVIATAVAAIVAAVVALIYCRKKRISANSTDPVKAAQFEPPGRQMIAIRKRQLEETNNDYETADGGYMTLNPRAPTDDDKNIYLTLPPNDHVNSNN
substance,measurement,setting,value
"Human IgG (heat-aggregated IgG, used as a model of immune complexes; or immobilised on plastic) (ligand)",percent of aIgG+CD4+ T cells,[1],14.1%
same,"IFN-γ in the supernatant (ELISA) after cIgG, then suboptimal PHA for 5 d",[2],4950 pg/mL
same,"IL-5 in the supernatant (ELISA) after cIgG, then suboptimal PHA for 5 d",[2],77.9 pg/mL
same,"IL-10 in the supernatant (ELISA) after cIgG, then suboptimal PHA for 5 d",[2],143 pg/mL
same,"TNF-α in the supernatant (ELISA) after cIgG, then suboptimal PHA for 5 d",[2],59.1 pg/mL
